Reference: patent US6342348

T1: rat NTNRα, endogenous, on embryonic rat spinal motoneurons (rat)
T1 sequence (chain, GPI-linked): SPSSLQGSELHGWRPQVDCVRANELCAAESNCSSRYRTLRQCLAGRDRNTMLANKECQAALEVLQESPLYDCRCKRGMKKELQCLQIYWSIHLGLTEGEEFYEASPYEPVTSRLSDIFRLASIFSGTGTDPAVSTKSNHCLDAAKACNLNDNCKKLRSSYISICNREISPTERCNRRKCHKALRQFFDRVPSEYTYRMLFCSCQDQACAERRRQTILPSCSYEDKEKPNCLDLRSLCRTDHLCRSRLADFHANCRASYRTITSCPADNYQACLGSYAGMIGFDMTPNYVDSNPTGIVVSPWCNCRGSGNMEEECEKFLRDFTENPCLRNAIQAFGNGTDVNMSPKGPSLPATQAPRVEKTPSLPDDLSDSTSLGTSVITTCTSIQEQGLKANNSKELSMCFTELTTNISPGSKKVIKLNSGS

T2: recombinant soluble rat GDNFRα (rat) (UniProt Q62997)
T2 sequence (looked up): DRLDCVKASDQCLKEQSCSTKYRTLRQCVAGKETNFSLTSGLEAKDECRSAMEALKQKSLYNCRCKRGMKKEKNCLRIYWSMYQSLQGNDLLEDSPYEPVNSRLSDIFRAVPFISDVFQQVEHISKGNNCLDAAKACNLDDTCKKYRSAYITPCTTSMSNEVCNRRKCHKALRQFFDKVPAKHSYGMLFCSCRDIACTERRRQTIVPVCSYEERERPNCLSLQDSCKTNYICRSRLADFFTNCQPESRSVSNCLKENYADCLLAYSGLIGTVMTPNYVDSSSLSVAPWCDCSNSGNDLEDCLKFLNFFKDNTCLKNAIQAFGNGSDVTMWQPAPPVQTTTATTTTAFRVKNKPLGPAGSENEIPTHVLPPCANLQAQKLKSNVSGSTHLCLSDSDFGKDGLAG


Experiments:
[1] = target: T1, rat NTNRα, endogenous, on embryonic rat spinal motoneurons (rat); assay: cell-based or functional assay
[2] = target: T2, recombinant soluble rat GDNFRα (rat); assay: binding experiments with biotinylated ligand (format not described)
[3] = target: T2, recombinant soluble rat GDNFRα (rat); assay: displacement of labelled rGDNF from soluble GDNFRα by unlabeled NTN (10 nm)
[4] = target: rat NTNRα-IgG fusion protein (soluble rNTNRα) (rat); assay: binding experiments with biotinylated ligand (format not described); 'and vice versa'

Kd [2] [µM]	Kd [3] [µM]	Kd [4] [µM]	Binder	decrease in survival response of embryonic rat spinal motoneurons to NTN after PIPLC treatment [1] [%]
> 1000	> 0.001		Neurturin (NTN), species not stated (ligand, UniProt Q99748 96-197, looked up, species assumed) Neurturin: ARLGARPCGLRELEVRVSELGLGYASDETVLFRYCAGACEAAARVYDLGLRRLRQRRRLRRERVRAQPCCRPTAYEDEVSFLDAHSRYHTVHELSARECACV	50 to 90
		> 1000	GDNF, species not stated (ligand, UniProt P39905 78-211, looked up, species assumed) Glial cell line-derived neurotrophic factor: SPDKQMAVLPRRERNRQAAAANPENSRGKGRRGQRGKNRGCVLTAIHLNVTDLGLGYETKEELIFRYCSGSCDAAETTYDKILKNLSRNRRLVSDKVGQACCRPIAFDDDLSFLDDNLVYHILRKHSAKRCGCI	
